Laboratory results as given in patent US20240083959A1.

Target: T1, recombinant human LPHN2 lectin-olfactomedin-like-GAIN/GPS domain, residues F26-R796 (human), O95490
T1 chain: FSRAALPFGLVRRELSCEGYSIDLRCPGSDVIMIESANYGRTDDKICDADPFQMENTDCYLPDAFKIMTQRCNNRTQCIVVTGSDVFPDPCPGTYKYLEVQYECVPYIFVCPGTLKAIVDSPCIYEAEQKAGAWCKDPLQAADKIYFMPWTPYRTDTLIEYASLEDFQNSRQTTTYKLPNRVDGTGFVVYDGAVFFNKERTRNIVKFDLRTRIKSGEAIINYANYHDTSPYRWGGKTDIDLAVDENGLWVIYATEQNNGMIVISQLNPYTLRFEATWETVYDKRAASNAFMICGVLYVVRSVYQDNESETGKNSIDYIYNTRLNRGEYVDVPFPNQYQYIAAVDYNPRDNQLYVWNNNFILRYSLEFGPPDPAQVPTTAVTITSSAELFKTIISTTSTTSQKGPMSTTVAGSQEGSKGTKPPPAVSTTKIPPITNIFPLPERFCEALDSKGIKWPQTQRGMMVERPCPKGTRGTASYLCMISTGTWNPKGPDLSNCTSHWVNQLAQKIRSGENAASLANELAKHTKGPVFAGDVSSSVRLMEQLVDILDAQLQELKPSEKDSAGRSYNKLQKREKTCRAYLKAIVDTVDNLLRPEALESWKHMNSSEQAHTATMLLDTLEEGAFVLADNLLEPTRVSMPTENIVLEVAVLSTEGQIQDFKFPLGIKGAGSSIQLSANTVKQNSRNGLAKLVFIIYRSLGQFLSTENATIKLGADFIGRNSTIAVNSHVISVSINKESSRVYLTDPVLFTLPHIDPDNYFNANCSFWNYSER
Test: solid-phase binding (ELISA)
Conditions: ligand; chains chain; N-linked glycans removed with PNGase F (sites N79, N186, N269, N325 on SEQ ID NO: 1); remark: other sources report otherwise

Kd: 840 nM
B1: deglycosylated LRG1 (LRG1 treated with PNGase F), P02750 36-347 (protein)
chain: VTLSPKDCQVFRSDHGSSISCQPPAEIPGYLPADTVHLAVEFFNLTHLPANLLQGASKLQELHLSSNGLESLSPEFLRPVPQLRVLDLTRNALTGLPPGLFQASATLDTLVLKENQLEVLEVSWLHGLKALGHLDLSGNRLRKLPPGLLANFTLLRTLDLGENQLETLPPDLLRGPLQLERLHLEGNKLQVLGKDLLLPQPDLRYLFLNGNKLARVAAGAFQGLRQLDMLDLSNNSLASVPEGLWASLGQPNWDMRDGFDISGNPWICDQNLSDLYRWLQAQKDKMFSQNDTRCAGPEAVKGQTLLAVAKSQ
